Measured values as given in patent US20260356921 (published 2026).

Molecular target: SARS-CoV (2003) RBD (SARS-CoV, UniProt P59594)
Assay: BLI

B1: VHH-Fc (antibody, V domains shown)
VH: QVQLQESGGGLVQTGGSLRLSCAASGSFFSINDMGWYRQAPGKQRELVAMITGDDSTNYADSVKGRFTISRDNLKNTVYLQMNSLKPEDTALYYCNAEVKVIIWDSRFNYYWGQGTQVTVSS
B1 gave a Kd of 13 nM.
